Here are results for one substance from paper PMC3157347.

This assay concerns the target V. parahaemolyticus YeaZ, fragment 1-213 as in the crystals (Vibrio parahaemolyticus). As to the kind of experiment: crystal structure; X-ray, 3.1 Å; asymmetric unit with four subunits (two dimers related by a non-crystallographic two-fold axis); crystals of fragment 1-213; no nucleotide.

With “V. parahaemolyticus YeaZ, fragment 1-213 as in the crystals (domain or fragment)”, the stoichiometry N (commonly a count of units in the complex or per binding partner) turned out to be 2.
